The values below come from patent publication US20180326082A1 (Sanofi, published 2018).

The chains are these.
B1: 40 kD N-terminal mono-PEGylated rhTSH (ligand)
chain 1: not shown
chain 2: FCIPTEYTMHIERRECAYCLTINTTICAGYCMTRDINGKLFLPKYALSQDVCTYRDFIYRTVEIPGCPLHVAPYFSYPVALSCKCGKCNTDYSDCIHEAIKTNYCTKPQKSY
modifications: see alpha chain; one 40 kD aldehyde PEG per protein at an N-terminus (reductive amination); which subunit is not stated
B2: 40 kD monoSAM PEGylated rhTSH (ligand)
chain 1: not shown
chain 2: B1 chain 2
modifications: see alpha chain; glycan at ASN23 is a possible PEG site; one 40 kD aminoxy PEG per protein on periodate-oxidized sialic acid of an N-linked glycan (ASN52 or ASN78 of alpha, or ASN23 of beta); 58% of the conjugate modified on the alpha subunit
notes: Sialic acid-mediated (SAM) monoPEGylation of rhTSH; also called 40 kD SAM; mono-40 kDa aminoxy PEG-TSH (SAM PEGylation)
B3: 40 kD Lysine mono-PEGylated rhTSH (ligand)
chain 1: not shown
chain 2: B1 chain 2
modifications: see alpha chain; one 40 kDa NHS PEG per protein on a lysine; which lysine and subunit are not stated
notes: SEC fraction of the mono-PEGylated species; also called mono-40 kDa NHS PEG-TSH (Lysine PEGylation)
B4: 40 kD GAM+ PEGylated rhTSH (ligand)
chain 1: not shown
chain 2: B1 chain 2
modifications: see alpha chain; glycan at ASN23 is a possible PEG site; sialic acid removed with neuraminidase; one 40 kD aminoxy PEG per protein on galactose oxidase-oxidized galactose of an N-linked glycan (ASN52 or ASN78 of alpha, or ASN23 of beta); 66% of the conjugate modified on the alpha subunit
B5: 10 kD monoSAM PEGylated rhTSH (ligand)
chain 1: not shown
chain 2: B1 chain 2
modifications: see alpha chain; glycan at ASN23 is a possible PEG site; one 10 kD aminoxy PEG per protein on periodate-oxidized sialic acid of an N-linked glycan (ASN52 or ASN78 of alpha, or ASN23 of beta)
notes: Sialic acid-mediated (SAM) monoPEGylation of rhTSH; also called 10 kD SAM
B6: 20 kD GAM+ PEGylated rhTSH (ligand)
chain 1: not shown
chain 2: B1 chain 2
modifications: see alpha chain; glycan at ASN23 is a possible PEG site; sialic acid removed with neuraminidase; one 20 kD aminoxy PEG per protein on galactose oxidase-oxidized galactose of an N-linked glycan (ASN52 or ASN78 of alpha, or ASN23 of beta)
B7: 10 kD multiSAM PEGylated rhTSH (ligand)
chain 1: not shown
chain 2: B1 chain 2
modifications: see alpha chain; glycan at ASN23 is a possible PEG site; more than one 10 kD aminoxy PEG per protein on periodate-oxidized sialic acid of the N-linked glycans (ASN52, ASN78 of alpha; ASN23 of beta); split between sites not stated
B8: 20 kD monoSAM PEGylated rhTSH (ligand)
chain 1: not shown
chain 2: B1 chain 2
modifications: see alpha chain; glycan at ASN23 is a possible PEG site; one 20 kD aminoxy PEG per protein on periodate-oxidized sialic acid of an N-linked glycan (ASN52 or ASN78 of alpha, or ASN23 of beta)
notes: Sialic acid-mediated (SAM) monoPEGylation of rhTSH; also called 20 kD SAM
B9: 20 kD GAM- PEGylated rhTSH (ligand)
chain 1: not shown
chain 2: B1 chain 2
modifications: see alpha chain; glycan at ASN23 is a possible PEG site; one 20 kD aminoxy PEG per protein on galactose oxidase-oxidized galactose of an N-linked glycan (ASN52 or ASN78 of alpha, or ASN23 of beta)
B10: 40 kD GAM- PEGylated rhTSH (ligand)
chain 1: not shown
chain 2: B1 chain 2
modifications: see alpha chain; glycan at ASN23 is a possible PEG site; one 40 kD aminoxy PEG per protein on galactose oxidase-oxidized galactose of an N-linked glycan (ASN52 or ASN78 of alpha, or ASN23 of beta); 77% of the conjugate modified on the alpha subunit
B11: recombinant human TSH (rhTSH), THYROGEN Thyroid Stimulating Hormone (ligand)
chain 1: not shown
chain 2: B1 chain 2
modifications: N-linked carbohydrate chain at ASN23; N-linked carbohydrate chains at ASN52 and ASN78
notes: Heterodimer of alpha and beta subunit; also called TSH control; control TSH, starting material
B12: 50 kD 3-arm PEG G22C rhTSH (ligand)
chain 1: not shown
chain 2: B1 chain 2
modifications: 50 kD 3-arm cysteine-reactive PEG on Cys22
B13: 40 kD linear PEG G22C rhTSH (ligand)
chain 1: not shown
chain 2: B1 chain 2
modifications: 40 kD linear cysteine-reactive PEG on Cys22
notes: also called 40 kD linear G22C; 40 kD G22C
B14: 60 kD 2-arm PEG G22C rhTSH (ligand)
chain 1: not shown
chain 2: B1 chain 2
modifications: 60 kD 2-arm cysteine-reactive PEG on Cys22
B15: 60 kD 4-arm PEG G22C rhTSH (ligand)
chain 1: not shown
chain 2: B1 chain 2
modifications: 60 kD 4-arm cysteine-reactive PEG on Cys22
B16: G22C rhTSH (ligand)
chain 1: not shown
chain 2: B1 chain 2
modifications: introduced cysteine found capped after expression and purification
notes: Cysteine mutant without PEG, produced from CHO cells; also called TSH G22C(alpha); G22C(a)
B17: 40 kD 2-arm PEG G22C rhTSH (ligand)
chain 1: not shown
chain 2: B1 chain 2
modifications: 40 kD 2-arm cysteine-reactive PEG on Cys22
B18: 40 kD 4-arm PEG G22C rhTSH (ligand)
chain 1: not shown
chain 2: B1 chain 2
modifications: 40 kD 4-arm cysteine-reactive PEG on Cys22

In general, IC50 refers to the point on the concentration scale where inhibition reaches its midpoint. Lower therefore signals greater potency.

The target in the first test is T1, porcine TSH receptor (porcine, UniProt Q8SPP9 22-764, limits assumed).
T1 construct: Bought, coated on kit plates; the construct is not described; also called immobilized porcine TSH receptor
T1 sequence (Q8SPP9 22-764 limits assumed): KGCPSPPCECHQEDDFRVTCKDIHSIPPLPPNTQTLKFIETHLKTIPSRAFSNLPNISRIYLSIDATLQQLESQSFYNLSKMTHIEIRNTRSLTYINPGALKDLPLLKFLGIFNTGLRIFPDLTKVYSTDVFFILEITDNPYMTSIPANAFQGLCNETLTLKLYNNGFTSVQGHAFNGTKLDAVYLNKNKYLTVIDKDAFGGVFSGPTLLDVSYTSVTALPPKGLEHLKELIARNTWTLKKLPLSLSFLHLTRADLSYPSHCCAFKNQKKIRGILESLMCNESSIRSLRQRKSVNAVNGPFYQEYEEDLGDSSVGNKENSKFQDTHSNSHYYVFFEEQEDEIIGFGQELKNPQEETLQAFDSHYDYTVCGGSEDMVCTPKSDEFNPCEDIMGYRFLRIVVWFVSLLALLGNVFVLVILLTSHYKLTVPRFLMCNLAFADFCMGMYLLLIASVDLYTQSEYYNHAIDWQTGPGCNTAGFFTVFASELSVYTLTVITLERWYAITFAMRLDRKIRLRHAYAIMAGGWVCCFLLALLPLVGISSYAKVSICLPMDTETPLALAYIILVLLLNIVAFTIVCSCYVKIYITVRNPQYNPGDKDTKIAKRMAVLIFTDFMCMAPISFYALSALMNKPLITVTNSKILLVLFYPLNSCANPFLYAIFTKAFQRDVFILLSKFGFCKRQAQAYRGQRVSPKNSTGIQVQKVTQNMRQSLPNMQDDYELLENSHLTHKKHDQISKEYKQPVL
The experiment in a line: in vitro TSH receptor binding assay (competition ELISA). Background: An ELISA detects its analyte on a solid surface through an enzyme-linked reagent.
Consider B1, for which the “fold decrease of in vitro TSH receptor binding affinity, compared to the rhTSH control” value was found to be 11.1 fold.

The target in another test is T1, porcine TSH receptor. Kind of test: competition ELISA; displacement of biotinylated rhTSH from immobilized porcine TSH receptor. On the procedure:
(§1) Purified PEGylated conjugates were analyzed by in vitro porcine TSH receptor binding assay using the TSH Receptor Autoantibody 2nd Generation ELISA kit from RSR Limited (Kronus, Star, Id.). Instead of using the biotinylated human monoclonal autoantibody to the TSH receptor provided by the kit, we biotinylated Thyrogen® (rhTSH) to use for competitive inhibition of binding to TSH receptor. Binding of biotinylated rhTSH to immobilized porcine TSH receptor was inhibited by either rhTSH control or PEGylated rhTSH conjugates and IC₅₀ values were measured.
(§2) Thyrogen® was biotinylated with 1.7 to 1.8 biotins per protein using the ChromaLink™ Biotin Labeling Reagent according to the manufacturer's protocol (QED Bioscience Inc., San Diego, Calif.) and buffer exchanged into 50 mM sodium phosphate, 150 mM sodium chloride pH 7.0 with a Zeba™ Desalt Spin Column (Thermo Scientific, Rockford, Ill.). In vitro measurement of receptor binding was performed by competition of biotinylated Thyrogen® and PEG-rhTSH conjugate for binding to porcine TSH receptor immobilized onto 96-well plates supplied with the TSH Receptor Autoantibody 2nd Generation ELISA kit from RSR Limited (Kronus, Star, Id.). PEG-rhTSH conjugates were serially diluted 1:5 from 16 μM to 41 pM in assay buffer (100 mM HEPES pH 7.5, 20 mM EDTA, 1% BSA, 0.5% Triton X-100) and mixed 1:1 with biotinylated Thyrogen® diluted 1000-fold in assay buffer. The mixture was added to each receptor-coated well and incubated at 25° C. for 25 minutes. Unbound rhTSH was washed away and streptavidin peroxidase was added at 25° C. for 20 minutes according to the RSR Limited ELISA protocol to determine the amount of biotinylated Thyrogen® bound to the plate. The plate was then washed three times to remove excess unbound streptavidin peroxidase and then tetramethylbenzidine (TMB) was added to each well and incubated in the dark at 25° C. for 30 minutes. The reaction which was quenched with 0.5M sulfuric acid stop buffer and the absorbance of each well was read at 450 nm using a SpectraMax® 340pc plate reader (Molecular Devices, Sunnyvale, Calif.). The data was fit using a sigmoidal dose response equation with GraphPad Prism software to generate IC₅₀ values.
Take B2: the 50% inhibitory concentration (IC50) is 0.196 µM and the “fold change (IC50 against rhTSH)” value was determined as 5.3 fold.
The corresponding values for B3 are 0.876 µM and 31.2 fold.
For B1, in that order: 0.397 µM and 10.8 fold.
The corresponding values for B4 are 0.133 µM and 3.6 fold.
As for B5, the IC50 came out at 0.0781 µM and the “fold change (IC50 against rhTSH)” value came out at 2.1 fold.
The corresponding values for B6 are 0.0817 µM and 2.2 fold.
For B7, in that order: 0.138 µM and 3.8 fold.
The corresponding values for B8 are 0.0923 µM and 2.5 fold.
As for B9, the IC50 turned out to be 0.101 µM and the “fold change (IC50 against rhTSH)” value is 2.7 fold.
For B10, in that order: 0.294 µM and 8 fold.
B11: the IC50 came to 0.0367 µM and the “fold change (IC50 against rhTSH)” value was found to be 1 fold.

A further test deals with T1, porcine TSH receptor. Described as above. This is another data set of the same source. On the procedure: as §1, §2
For B3, the IC50 is 0.876 µM and the “fold change (IC50 against rhTSH)” value came out at 31.2 fold.
B1: the IC50 is 0.319 µM and the “fold change (IC50 against rhTSH)” value turned out to be 11.4 fold.
For B11, the IC50 was 0.028 µM and the “fold change (IC50 against rhTSH)” value was found to be 1 fold.
The corresponding values for B12 are 0.281 µM and 10 fold.
Consider B13, for which the IC50 is 0.248 µM and the “fold change (IC50 against rhTSH)” value turned out to be 8.9 fold.
As to B14, the IC50 came out at 11.3 µM and the “fold change (IC50 against rhTSH)” value came out at 404 fold.
Turning to B15, the IC50 amounted to 4020 µM and the “fold change (IC50 against rhTSH)” value came out at 144000 fold.
As for B16, the IC50 amounted to 0.0416 µM and the “fold change (IC50 against rhTSH)” value amounted to 1.5 fold.
For B17, in that order: 0.417 µM and 14.9 fold.
In the case of B18, the IC50 worked out at 0.743 µM and the “fold change (IC50 against rhTSH)” value came out at 26.5 fold.
